T1: Flt1(h) (human, UniProt P17948 781-1338, limits assumed)
T1 sequence (looked up): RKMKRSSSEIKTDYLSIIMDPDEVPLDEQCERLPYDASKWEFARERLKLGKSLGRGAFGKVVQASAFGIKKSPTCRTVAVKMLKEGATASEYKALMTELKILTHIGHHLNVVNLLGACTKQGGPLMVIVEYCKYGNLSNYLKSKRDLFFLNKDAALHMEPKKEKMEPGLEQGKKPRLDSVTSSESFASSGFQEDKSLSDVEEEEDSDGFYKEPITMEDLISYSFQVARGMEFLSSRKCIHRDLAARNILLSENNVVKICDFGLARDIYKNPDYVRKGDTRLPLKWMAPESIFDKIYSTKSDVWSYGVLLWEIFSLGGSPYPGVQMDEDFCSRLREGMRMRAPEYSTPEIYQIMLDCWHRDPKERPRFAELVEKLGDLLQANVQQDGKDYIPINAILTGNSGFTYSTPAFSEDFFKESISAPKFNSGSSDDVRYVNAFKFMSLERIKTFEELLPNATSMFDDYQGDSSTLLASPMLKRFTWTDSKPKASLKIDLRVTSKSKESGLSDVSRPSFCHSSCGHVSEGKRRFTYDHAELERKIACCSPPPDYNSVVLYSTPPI

T2: ULK2(h) (human, UniProt Q8IYT8 1-631, limits assumed)
T2 sequence (looked up): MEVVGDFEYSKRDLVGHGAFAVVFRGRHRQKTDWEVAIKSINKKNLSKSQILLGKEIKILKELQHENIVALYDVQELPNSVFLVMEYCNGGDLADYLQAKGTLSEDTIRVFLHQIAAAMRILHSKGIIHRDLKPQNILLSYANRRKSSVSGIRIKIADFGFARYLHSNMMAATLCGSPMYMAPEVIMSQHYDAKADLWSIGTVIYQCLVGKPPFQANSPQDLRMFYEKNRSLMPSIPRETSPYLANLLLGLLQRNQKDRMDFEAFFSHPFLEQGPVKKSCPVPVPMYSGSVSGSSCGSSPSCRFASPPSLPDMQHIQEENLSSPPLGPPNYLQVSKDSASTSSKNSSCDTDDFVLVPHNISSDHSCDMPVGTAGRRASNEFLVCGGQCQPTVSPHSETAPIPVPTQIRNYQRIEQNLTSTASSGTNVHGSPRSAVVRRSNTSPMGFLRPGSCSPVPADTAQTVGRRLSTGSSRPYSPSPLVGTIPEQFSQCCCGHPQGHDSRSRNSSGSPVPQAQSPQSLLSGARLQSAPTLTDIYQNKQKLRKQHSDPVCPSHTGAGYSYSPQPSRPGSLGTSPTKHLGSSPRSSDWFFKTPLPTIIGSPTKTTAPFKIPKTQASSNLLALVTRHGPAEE

T3: Ron(h) (human, UniProt Q04912 983-1400, limits assumed)
T3 sequence (looked up): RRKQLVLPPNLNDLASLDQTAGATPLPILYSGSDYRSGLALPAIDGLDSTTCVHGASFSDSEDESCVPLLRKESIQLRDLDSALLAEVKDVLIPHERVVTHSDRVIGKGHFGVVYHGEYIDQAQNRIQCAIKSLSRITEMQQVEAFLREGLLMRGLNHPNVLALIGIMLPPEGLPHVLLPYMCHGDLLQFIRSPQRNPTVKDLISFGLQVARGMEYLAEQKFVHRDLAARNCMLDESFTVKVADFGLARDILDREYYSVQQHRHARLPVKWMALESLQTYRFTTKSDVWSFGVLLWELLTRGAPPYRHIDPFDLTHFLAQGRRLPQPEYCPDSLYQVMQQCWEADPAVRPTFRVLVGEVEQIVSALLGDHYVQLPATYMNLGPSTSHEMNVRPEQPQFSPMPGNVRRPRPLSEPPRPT

T4: TAO2(h) (human, UniProt Q9UL54 1-314, limits assumed)
T4 sequence (looked up): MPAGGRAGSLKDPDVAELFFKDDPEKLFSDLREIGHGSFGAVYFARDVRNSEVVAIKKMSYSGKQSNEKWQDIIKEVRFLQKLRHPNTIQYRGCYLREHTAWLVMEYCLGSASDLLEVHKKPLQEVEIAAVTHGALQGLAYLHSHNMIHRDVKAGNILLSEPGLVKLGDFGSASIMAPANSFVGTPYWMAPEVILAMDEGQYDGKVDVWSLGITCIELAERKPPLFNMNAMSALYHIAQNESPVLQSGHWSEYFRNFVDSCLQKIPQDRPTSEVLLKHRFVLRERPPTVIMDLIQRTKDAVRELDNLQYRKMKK

T5: TAO3(h) (human, UniProt Q9H2K8 1-314, limits assumed)
T5 sequence (looked up): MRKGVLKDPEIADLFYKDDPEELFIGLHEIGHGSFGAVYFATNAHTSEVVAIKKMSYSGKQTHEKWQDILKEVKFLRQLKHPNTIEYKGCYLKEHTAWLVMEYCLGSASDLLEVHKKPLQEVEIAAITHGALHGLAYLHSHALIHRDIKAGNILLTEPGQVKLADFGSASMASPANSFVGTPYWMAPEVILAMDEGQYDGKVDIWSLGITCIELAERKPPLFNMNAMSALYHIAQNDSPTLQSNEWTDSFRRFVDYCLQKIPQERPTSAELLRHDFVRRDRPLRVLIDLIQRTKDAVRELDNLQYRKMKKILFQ


What was measured:
Assay in all cases: cell-based or functional assay
[1] = biological target: T1, Flt1(h)
[2] = biological target: TrkA(h) (human, UniProt P04629 441-796, limits assumed)
[3] = biological target: T2, ULK2(h)
[4] = biological target: Met(h) (human, UniProt P08581 956-1390, limits assumed)
[5] = biological target: GRK6(h) (human, UniProt P43250 1-576)
[6] = biological target: T3, Ron(h)
[7] = biological target: Met(Y1248H)(h) (human, UniProt P08581-2 974-1408, limits assumed)
[8] = biological target: T4, TAO2(h)
[9] = biological target: T5, TAO3(h)
[10] = biological target: Abl(T315I)(h) (human, UniProt P00519 27-1130, limits assumed)
Abl(T315I)(h), sequence (P00519 27-1130 T315I limits assumed): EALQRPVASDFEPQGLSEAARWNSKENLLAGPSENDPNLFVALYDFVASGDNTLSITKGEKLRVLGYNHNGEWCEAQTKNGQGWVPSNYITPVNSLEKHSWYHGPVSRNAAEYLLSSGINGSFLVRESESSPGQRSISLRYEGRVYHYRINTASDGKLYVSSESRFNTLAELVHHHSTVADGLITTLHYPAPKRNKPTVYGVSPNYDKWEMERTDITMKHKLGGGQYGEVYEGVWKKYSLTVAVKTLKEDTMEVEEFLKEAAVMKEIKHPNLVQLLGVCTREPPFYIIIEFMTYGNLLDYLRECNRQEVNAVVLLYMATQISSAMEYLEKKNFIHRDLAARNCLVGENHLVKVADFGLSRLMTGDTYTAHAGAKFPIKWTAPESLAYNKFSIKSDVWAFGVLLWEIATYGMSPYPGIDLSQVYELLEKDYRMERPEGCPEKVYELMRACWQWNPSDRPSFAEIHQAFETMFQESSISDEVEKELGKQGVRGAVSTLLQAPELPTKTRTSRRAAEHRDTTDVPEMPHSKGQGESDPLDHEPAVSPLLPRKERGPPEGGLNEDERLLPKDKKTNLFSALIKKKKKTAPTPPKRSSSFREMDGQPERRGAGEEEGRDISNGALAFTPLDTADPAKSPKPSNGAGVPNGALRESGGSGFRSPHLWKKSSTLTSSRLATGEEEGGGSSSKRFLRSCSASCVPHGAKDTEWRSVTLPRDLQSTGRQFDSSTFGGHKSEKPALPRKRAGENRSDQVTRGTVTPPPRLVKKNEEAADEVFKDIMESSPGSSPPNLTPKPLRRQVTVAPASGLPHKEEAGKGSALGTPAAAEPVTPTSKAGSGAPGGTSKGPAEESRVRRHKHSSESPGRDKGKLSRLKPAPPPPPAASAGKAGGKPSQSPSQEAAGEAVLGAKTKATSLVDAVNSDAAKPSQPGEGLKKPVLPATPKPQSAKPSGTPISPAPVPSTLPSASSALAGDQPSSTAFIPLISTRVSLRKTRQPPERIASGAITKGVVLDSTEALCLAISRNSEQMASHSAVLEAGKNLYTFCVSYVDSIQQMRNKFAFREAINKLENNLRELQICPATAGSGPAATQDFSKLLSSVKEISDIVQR

TrkA(h), sequence (P04629 441-796 limits assumed): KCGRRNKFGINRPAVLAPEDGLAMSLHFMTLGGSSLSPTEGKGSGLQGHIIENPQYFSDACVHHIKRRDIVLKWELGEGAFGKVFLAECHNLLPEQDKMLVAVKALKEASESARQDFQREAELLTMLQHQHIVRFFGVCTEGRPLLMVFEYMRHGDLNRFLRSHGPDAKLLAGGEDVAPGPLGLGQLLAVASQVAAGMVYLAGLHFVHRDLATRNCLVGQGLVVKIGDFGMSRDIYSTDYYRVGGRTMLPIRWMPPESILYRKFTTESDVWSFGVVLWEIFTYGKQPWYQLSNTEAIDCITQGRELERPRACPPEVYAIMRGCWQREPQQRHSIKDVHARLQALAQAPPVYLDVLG
GRK6(h), sequence (P43250 whole entry): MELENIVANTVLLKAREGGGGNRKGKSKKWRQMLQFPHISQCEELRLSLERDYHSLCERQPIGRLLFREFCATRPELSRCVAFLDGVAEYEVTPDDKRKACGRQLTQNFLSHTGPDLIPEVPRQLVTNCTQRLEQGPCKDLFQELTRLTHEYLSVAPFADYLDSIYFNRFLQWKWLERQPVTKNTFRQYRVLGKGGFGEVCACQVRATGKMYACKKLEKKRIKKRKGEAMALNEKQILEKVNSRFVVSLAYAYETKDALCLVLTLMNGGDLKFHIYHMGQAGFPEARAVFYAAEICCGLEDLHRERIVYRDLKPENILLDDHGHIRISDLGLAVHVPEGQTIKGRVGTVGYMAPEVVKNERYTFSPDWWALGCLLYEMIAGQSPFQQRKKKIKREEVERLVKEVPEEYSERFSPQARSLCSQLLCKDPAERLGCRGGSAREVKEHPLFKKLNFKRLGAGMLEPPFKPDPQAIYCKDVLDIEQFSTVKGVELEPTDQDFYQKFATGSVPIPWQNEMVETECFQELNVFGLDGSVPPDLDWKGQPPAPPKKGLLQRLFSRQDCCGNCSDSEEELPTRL

Binder | % activity, 100 µM [1] [%] | % activity, 100 µM [2] [%] | % activity, 100 µM [3] [%] | % activity, 100 µM [4] [%] | % activity, 100 µM [5] [%] | % activity, 100 µM [6] [%] | % activity, 100 µM [7] [%] | % activity, 100 µM [8] [%] | % activity, 100 µM [9] [%] | % activity, 100 µM [10] [%]
KAFAKLAARLYRKALARQLGVAA [MMI-0400] | 48 | 17 | 131 | 62 | 141 | 79 | 63 | 74 | 67 | 105
FAKLAARLYRKALARQLGVAA [MMI-0300] | 69 | 25 | 122 | 65 | 147 | 93 | 117 | 70 | 77 | 97

Reference: patent US20140072613A1 (published 2014)
